Experiments:
human DSG-3 [1] = target: T1, human DSG-3 (human, UniProt P32926 50-615, limits assumed); assay: bridging ELISA, plate coated with hDSG-3, test article at 1 nM, then his-tagged hCD25 1 ug/mL, anti-His-HRP detection
T1 construct: Soluble analyte (Octet) and plate coat (ELISA); also called hDSG-3
T1 sequence (looked up): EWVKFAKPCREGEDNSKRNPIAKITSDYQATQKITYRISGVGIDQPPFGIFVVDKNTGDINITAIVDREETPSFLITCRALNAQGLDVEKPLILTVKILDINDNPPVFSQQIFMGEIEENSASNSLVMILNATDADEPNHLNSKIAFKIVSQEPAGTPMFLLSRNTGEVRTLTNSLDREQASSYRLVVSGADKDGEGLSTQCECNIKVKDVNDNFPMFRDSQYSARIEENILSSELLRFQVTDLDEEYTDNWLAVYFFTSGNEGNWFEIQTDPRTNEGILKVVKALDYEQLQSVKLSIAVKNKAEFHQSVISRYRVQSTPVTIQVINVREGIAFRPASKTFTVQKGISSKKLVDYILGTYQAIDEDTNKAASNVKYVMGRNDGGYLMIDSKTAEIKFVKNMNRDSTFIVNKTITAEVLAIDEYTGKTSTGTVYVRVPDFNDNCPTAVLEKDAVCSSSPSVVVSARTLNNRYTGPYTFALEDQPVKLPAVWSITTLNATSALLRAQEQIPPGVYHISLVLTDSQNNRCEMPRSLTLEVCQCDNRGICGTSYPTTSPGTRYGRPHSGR

human CD25 = target: T2, human CD25 (human, UniProt P01589 22-213, limits assumed); assay: BLI (Octet), test article captured on anti-human Fc biosensors, 1:1 global fit (method text names desmogleins as analyte; result told for human CD25)
T2 construct: construct not described
T2 sequence (looked up): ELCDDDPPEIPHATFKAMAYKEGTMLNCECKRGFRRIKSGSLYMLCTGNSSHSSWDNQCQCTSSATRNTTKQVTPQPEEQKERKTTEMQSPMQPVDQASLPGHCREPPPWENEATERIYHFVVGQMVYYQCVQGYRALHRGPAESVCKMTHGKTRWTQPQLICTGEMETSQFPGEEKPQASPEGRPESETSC

human DSG-3 [2] = target: T1, human DSG-3; assay: bridging ELISA, plate coated with hDSG-3, test article at 100 nM, then his-tagged hCD25 1 ug/mL, anti-His-HRP detection
human DSG-3 [3] = target: T1, human DSG-3; assay: bridging ELISA, plate coated with hDSG-3, test article at 10 nM, then his-tagged hCD25 1 ug/mL, anti-His-HRP detection
desmoglein-1 = target: T3, desmoglein-1 (Homo sapiens (Human), UniProt Q02413 50-548); assay: BLI (Octet), test article captured on anti-human Fc biosensors, desmoglein as analyte, 1:1 global fit
T3 construct: also called DSG-1
T3 sequence: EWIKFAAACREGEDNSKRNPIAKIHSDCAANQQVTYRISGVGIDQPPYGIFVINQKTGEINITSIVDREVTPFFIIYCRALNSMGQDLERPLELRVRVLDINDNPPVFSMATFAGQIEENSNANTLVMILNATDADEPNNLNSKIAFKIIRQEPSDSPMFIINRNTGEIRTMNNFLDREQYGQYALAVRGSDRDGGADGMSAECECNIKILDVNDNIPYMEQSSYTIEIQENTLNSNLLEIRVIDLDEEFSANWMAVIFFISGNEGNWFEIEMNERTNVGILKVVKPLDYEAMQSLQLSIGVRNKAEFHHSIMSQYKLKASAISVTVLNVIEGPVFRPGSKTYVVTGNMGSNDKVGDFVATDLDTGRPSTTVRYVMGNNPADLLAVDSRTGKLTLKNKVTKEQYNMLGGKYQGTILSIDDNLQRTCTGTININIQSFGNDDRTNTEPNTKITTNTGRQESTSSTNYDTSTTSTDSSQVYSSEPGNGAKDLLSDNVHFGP

desmoglein-2 = target: T4, desmoglein-2 (Homo sapiens (Human), UniProt Q14126 50-609); assay: as above
T4 construct: also called DSG-2
T4 sequence: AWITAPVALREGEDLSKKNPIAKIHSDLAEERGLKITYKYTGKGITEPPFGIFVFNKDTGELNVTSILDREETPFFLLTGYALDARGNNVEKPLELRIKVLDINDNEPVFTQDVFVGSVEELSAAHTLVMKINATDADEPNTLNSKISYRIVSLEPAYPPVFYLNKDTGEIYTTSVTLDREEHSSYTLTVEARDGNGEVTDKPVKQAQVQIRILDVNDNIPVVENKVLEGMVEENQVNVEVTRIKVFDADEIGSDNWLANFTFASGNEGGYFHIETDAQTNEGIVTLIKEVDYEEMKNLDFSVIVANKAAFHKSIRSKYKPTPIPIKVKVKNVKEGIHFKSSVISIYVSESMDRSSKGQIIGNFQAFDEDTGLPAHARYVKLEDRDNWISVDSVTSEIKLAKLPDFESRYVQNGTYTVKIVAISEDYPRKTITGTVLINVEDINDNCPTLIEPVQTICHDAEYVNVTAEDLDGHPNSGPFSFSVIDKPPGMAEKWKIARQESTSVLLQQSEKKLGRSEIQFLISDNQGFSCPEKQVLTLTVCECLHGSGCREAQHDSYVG

human DSG-3 [4] = target: T1, human DSG-3; assay: as above
desmoglein-4 = target: T5, desmoglein-4 (Homo sapiens (Human), UniProt Q86SJ6 50-631); assay: as above
T5 construct: also called DSG-4
T5 sequence: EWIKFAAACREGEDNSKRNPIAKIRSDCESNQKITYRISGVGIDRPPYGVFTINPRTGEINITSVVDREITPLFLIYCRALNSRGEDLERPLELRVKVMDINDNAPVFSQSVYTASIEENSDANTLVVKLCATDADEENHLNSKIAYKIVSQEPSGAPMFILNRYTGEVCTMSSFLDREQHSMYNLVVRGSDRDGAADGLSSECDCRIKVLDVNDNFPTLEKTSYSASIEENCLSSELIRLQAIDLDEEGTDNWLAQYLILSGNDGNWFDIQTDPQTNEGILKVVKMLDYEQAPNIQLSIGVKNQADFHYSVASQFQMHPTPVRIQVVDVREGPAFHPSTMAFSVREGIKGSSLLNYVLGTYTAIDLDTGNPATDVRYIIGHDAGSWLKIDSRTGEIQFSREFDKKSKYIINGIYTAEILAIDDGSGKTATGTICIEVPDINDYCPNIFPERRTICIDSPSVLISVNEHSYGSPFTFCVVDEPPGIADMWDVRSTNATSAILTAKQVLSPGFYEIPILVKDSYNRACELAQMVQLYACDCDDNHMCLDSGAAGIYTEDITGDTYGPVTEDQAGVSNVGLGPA

Insulin = target: T6, Insulin; assay: ELISA, plate coated with insulin 5 ug/mL, test article at 100 nM, anti-human Fc-HRP detection
T6 construct: Plate coat in the polyreactivity ELISA

B1: IL2DSGAB8 (other)
heavy: QVQLVQSGGGVVQSGRSLRLSCAASGFTFSDYAMHWVRQAPGKGLEWVAVISHGGTKKYTGDSVKGRFIISRDNSKNTVFLQMNSLRVEDTAVYYCARDRVEGYVWGGTFDHWGQGTPVTVSSASTKGPSVFPLAPSSKSTSGGTAALGCLVKDYFPEPVTVSWNSGALTSGVHTFPAVLQSSGLYSLSSVVTVPSSSLGTQTYICNVNHKPSNTKVDKKVEPKSCDKTHTCPPCPAPEAAGAPSVFLFPPKPKDTLMISRTPEVTCVVVDVSHEDPEVKFNWYVDGVEVHNAKTKPREEQYNSTYRVVSVLTVLHQDWLNGKEYKCKVSNKALPAPIEKTISKAKGQPREPQVYTLPPSREEMTKNQVSLTCLVKGFYPSDIAVEWESNGQPENNYKTTPPVLDSDGSFFLYSKLTVDKSRWQQGNVFSCSVMHEALHNHYTQKSLSLSPG
light: ELVLTQPPSVPVAPGQTANISCGGNNIGRQTVHWYQQKPGQAPVLVVFDDSDRPAGIPERFSGSNSGNTATLTISRVEAGDEADYYCQVWDSSSDHVVFGGGTQLTVLGQPKAAPSVTLFPPSSEELQANKATLVCLISDFYPGAVTVAWKADSSPVKAGVETTTPSKQSNNKYAASSYLSLTPEQWKSHRSYSCQVTHEGSTVEKTVAPTECSAEEEKAEEEKAEEEKAEEEKAPTSSSTKKTQLQLEHLLLDLQMILNGINNYKNPKLTRMLTFKFYMPKKATELKHLQCLEEELKPLEEALNLAPSKNFHLRPRDLISDINVIVLELKGSETTFMCEYADETATIVEFINRWITFSQSIISTLT
absorbance (OD450 nm) (human DSG-3 [1]): 0.29 | Kd (human CD25): 3.5 nM | absorbance (OD450 nm) (human DSG-3 [2]): 1 | absorbance (OD450 nm) (human DSG-3 [3]): 0.41

B2: IL2DSGAB5 (other)
heavy: QVQLQESGPGPVKPSGTLSLTCGVSGGSISSNHWWTWVRQPPGKGLEWIGEIYHNGSTFLNPSLKSRVTISVDKSNNQFSLKLTSVTAADTAVYYCARGWHRTGFRGYPSHWYFDLWGRGTLVSVSSASTKGPSVFPLAPSSKSTSGGTAALGCLVKDYFPEPVTVSWNSGALTSGVHTFPAVLQSSGLYSLSSVVTVPSSSLGTQTYICNVNHKPSNTKVDKKVEPKSCDKTHTCPPCPAPEAAGAPSVFLFPPKPKDTLMISRTPEVTCVVVDVSHEDPEVKFNWYVDGVEVHNAKTKPREEQYNSTYRVVSVLTVLHQDWLNGKEYKCKVSNKALPAPIEKTISKAKGQPREPQVYTLPPSREEMTKNQVSLTCLVKGFYPSDIAVEWESNGQPENNYKTTPPVLDSDGSFFLYSKLTVDKSRWQQGNVFSCSVMHEALHNHYTQKSLSLSPG
light: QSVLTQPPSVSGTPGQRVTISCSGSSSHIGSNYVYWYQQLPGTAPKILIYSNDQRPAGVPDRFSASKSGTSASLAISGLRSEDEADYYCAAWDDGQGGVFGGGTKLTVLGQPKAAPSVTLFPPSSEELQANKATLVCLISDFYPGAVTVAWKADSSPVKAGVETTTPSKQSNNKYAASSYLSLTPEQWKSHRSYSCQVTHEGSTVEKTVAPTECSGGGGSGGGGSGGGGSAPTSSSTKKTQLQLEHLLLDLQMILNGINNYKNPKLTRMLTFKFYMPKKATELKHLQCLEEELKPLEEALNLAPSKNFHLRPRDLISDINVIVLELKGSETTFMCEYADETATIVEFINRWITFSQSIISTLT
notes: SD1 anti-desmoglein human IgG1 with the IL-2 mutein fused to the C-terminus of the light chain; also called TL2DSGAB5
absorbance (OD450 nm) (human DSG-3 [1]): 0.27 | Kd (human CD25): 3.4 nM | absorbance (OD450 nm) (human DSG-3 [2]): 0.965 | absorbance (OD450 nm) (human DSG-3 [3]): 0.483

B3: IL2DSGAB1 (other)
heavy: QVQLQESGPGPVKPSGTLSLTCGVSGGSISSNHWWTWVRQPPGKGLEWIGEIYHNGSTFLNPSLKSRVTISVDKSNNQFSLKLTSVTAADTAVYYCARGWHRTGFRGYPSHWYFDLWGRGTLVSVSSASTKGPSVFPLAPSSKSTSGGTAALGCLVKDYFPEPVTVSWNSGALTSGVHTFPAVLQSSGLYSLSSVVTVPSSSLGTQTYICNVNHKPSNTKVDKKVEPKSCDKTHTCPPCPAPEAAGAPSVFLFPPKPKDTLMISRTPEVTCVVVDVSHEDPEVKFNWYVDGVEVHNAKTKPREEQYNSTYRVVSVLTVLHQDWLNGKEYKCKVSNKALPAPIEKTISKAKGQPREPQVYTLPPSREEMTKNQVSLTCLVKGFYPSDIAVEWESNGQPENNYKTTPPVLDSDGSFFLYSKLTVDKSRWQQGNVFSCSVMHEALHNHYTQKSLSLSPGGGGGSAPTSSSTKKTQLQLEHLLLDLQMILNGINNYKNPKLTRMLTFKFYMPKKATELKHLQCLEEELKPLEEALNLAPSKNFHLRPRDLISDINVIVLELKGSETTFMCEYADETATIVEFINRWITFSQSIISTLT
light: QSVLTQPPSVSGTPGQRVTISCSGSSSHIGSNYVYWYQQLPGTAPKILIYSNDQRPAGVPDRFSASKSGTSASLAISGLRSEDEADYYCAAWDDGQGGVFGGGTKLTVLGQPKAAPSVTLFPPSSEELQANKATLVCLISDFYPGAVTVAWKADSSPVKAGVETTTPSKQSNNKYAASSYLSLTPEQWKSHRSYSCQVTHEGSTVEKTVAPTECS
notes: SD1 anti-desmoglein human IgG1 with the IL-2 mutein fused to the C-terminus of the heavy chain; copies: 2 + 2
Kd (desmoglein-1): 13 nM | Kd (desmoglein-2): 4.2 nM | Kd (human DSG-3 [4]): 19 nM | Kd (desmoglein-4): 10 nM | absorbance (OD450 nm) (human DSG-3 [1]): 0.31 | Insulin polyreactivity score (Insulin): 2.2 | absorbance (OD450 nm) (human DSG-3 [2]): 1.3 | absorbance (OD450 nm) (human DSG-3 [3]): 0.78

Reference: US20240262905A1 (PANDION OPERATIONS, published 2024)
